Patent US20150118747A1, “ELECTROSTRETCHED POLYMER MICROFIBERS FOR MICROVASCULATURE DEVELOPMENT” (The Johns Hopkins University, priority 2013, published 2015)

Key:
ECFCs [1] = assay: Actin and microtubule disruption studies, ECFCs on fibrin microfibers; format: cell-based, Human; settings: for actin and microtubule organization, respectively / wrapping organization of the deposited ECM molecules compared to control cultures: ECFCs seeded on nanopatterned fibrin microfibers; for average angle of ECM orientation or variance of all angles, vs no drug: drug added 24 h after ECFC seeding on fibrin microfibers, 24 and 48 hrs of treatment
Experimental: The cell areas and perimeters were measured by fitting an ellipse to each cell using the LSM 510 software. Cytoskeletal alignment angle was calculated by measuring the angle between the long axis of each ellipse and the longitudinal axis of the microfiber, found by drawing a line at the edges of the microfiber in its image projection. ECM angle of orientation was measured using the LSM 510 software by drawing a line following the ECM deposition and finding the angle between the line and the longitudinal axis of the microfiber. Graphs were plotted with 5-95% confidence intervals. Unpaired two-tailed Welch-corrected t-tests were performed where appropriate (GraphPad Prism® 5.01, GraphPad Software, San Diego, Calif.). Significance levels were determined between samples examined and were set at *p<0.05, **p<0.01, and ***p<0.001.
Cytochalasin D or nocodazole were dissolved in DMSO (Table 1). ECFCs were cultured on Petri dishes (control) or fibrin microfibers in ECFC media with 50 ng/mL of VEGF (Pierce, Rockford, Ill., USA) supplemented with either […] cytochalasin D or […] nocodazole, from either day 0 or day 1 after seeding. F-actin or a-tubulin organization and ECM deposition was analyzed after 1, 2, or 3 days of treatment. Final concentration of DMSO in cell culture medium was kept at 0.1% (v/v). Controls were treated with DMSO alone at the same concentration.

fibrin microfibers = assay: Plasmin treatment: degradation of fibrin microfibers without cells; format: biochemical; settings: serum-free media
Experimental: (§1) Fibrin microfibers with or without cells were treated with 15, 1, 0.25, and 0.1 CU/mL plasmin from human plasma (Athens Research and Technology, Athens, Ga.) in DMEM (Life Technologies, Grand Island, N.Y.) for 1, 6, 12, and 24 hrs respectively in a humidified incubator at 37° C. in a 5% CO2 atmosphere. Samples were imaged immediately after treatment.
The fibrin microfiber core was degraded after endothelial cell (EC) layer formation while maintaining both cellular viability and intact ECM organization. Fibrin microfibers without cells were treated with different concentrations of plasmin.

ECFCs [2] = assay: Live/Dead assay of ECFCs after plasmin treatment; format: cell-based; settings: for cell viability: confluent ECFCs, data not shown; for live cells: confluent ECFCs in 2D, serum-free
Experimental: as §1
ECFCs cultured in 2D and treated with plasmin were incubated with 2 μM calcein AM and 4 μM ethidium homodimer (Invitrogen) in PBS for 30 min at 37° C. and 5% CO2. Samples were imaged immediately after and the number of live and dead cells was counted using ImageJ (NIH, Bethesda, Md.).

| Molecule | actin and microtubule organization, respectively (ECFCs [1]) | wrapping organization of the deposited ECM molecules compared to control cultures (ECFCs [1]) | average angle of ECM orientation or variance of all angles, vs no drug (ECFCs [1]) | time in which plasmin degraded the microfibers (fibrin microfibers; 0.1 CU/mL plasmin) | time in which plasmin degraded the microfibers (fibrin microfibers; 0.25 CU/mL plasmin) | time in which plasmin degraded the microfibers (fibrin microfibers; 1 CU/mL plasmin) | time in which plasmin degraded the microfibers (fibrin microfibers; 15 CU/mL plasmin) | cell viability (ECFCs [2]; 1 hr treatment (15 CU/mL plasmin)) | cell viability (ECFCs [2]; 6 hr treatment (1 CU/mL plasmin)) | live cells (ECFCs [2]; 12 hr treatment (0.25 CU/mL plasmin)) | live cells (ECFCs [2]; 24 hr treatment (0.1 CU/mL plasmin)) |
| --- | --- | --- | --- | --- | --- | --- | --- | --- | --- | --- | --- |
| C=C1[C@@H](C)[C@H]2[C@H](Cc3ccccc3)NC(=O)[C@]23[C@H](OC(C)=O)/C=C/[C@@](C)(O)C(=O)[C@@H](C)C/C=C/[C@H]3[C@@H]1O [Cytochalasin D] | effectively altered | did not alter | No difference |  |  |  |  |  |  |  |  |
| COC(=O)Nc1nc2ccc(C(=O)c3cccs3)cc2[nH]1 [nocodazole] | effectively altered | did not alter | no difference |  |  |  |  |  |  |  |  |
| plasmin: plasmin from human plasma (Athens Research and Technology), enzyme that degrades fibrin (protein, UniProt P00747 20-580; P00747 581-810, looked up, plasmin, plasmin from human plasma (Athens Research and Technology), enzyme that degrades fibrin) Plasmin heavy chain A: EPLDDYVNTQGASLFSVTKKQLGAGSIEECAAKCEEDEEFTCRAFQYHSKEQQCVIMAENRKSSIIIRMRDVVLFEKKVYLSECKTGNGKNYRGTMSKTKNGITCQKWSSTSPHRPRFSPATHPSEGLEENYCRNPDNDPQGPWCYTTDPEKRYDYCDILECEEECMHCSGENYDGKISKTMSGLECQAWDSQSPHAHGYIPSKFPNKNLKKNYCRNPDRELRPWCFTTDPNKRWELCDIPRCTTPPPSSGPTYQCLKGTGENYRGNVAVTVSGHTCQHWSAQTPHTHNRTPENFPCKNLDENYCRNPDGKRAPWCHTTNSQVRWEYCKIPSCDSSPVSTEQLAPTAPPELTPVVQDCYHGDGQSYRGTSSTTTTGKKCQSWSSMTPHRHQKTPENYPNAGLTMNYCRNPDADKGPWCFTTDPSVRWEYCNLKKCSGTEASVVAPPPVVLLPDVETPSEEDCMFGNGKGYRGKRATTVTGTPCQDWAAQEPHRHSIFTPETNPRAGLEKNYCRNPDGDVGGPWCYTTNPRKLYDYCDVPQCAAPSFDCGKPQVEPKKCPGR Plasmin light chain B: VVGGCVAHPHSWPWQVSLRTRFGMHFCGGTLISPEWVLTAAHCLEKSPRPSSYKVILGAHQEVNLEPHVQEIEVSRLFLEPTRKDIALLKLSSPAVITDKVIPACLPSPNYVVADRTECFITGWGETQGTFGAGLLKEAQLPVIENKVCNRYEFLNGRVQSTELCAGHLAGGTDSCQGDSGGPLVCFEKDKYILQGVTSWGLGCARPNKPGVYVRVSRFVTWIEGVMRNN |  |  |  | ~24 h | ~12 h | ~6 h | about 1 hrs | poor cell viability | poor cell viability | 80.6±4.3% | 65.2±1.8% |
